Numbered stars: 1 amine (or outer) side, 2 acyl side, 3 side chain; on linkers, the order of the positions; unused ones are H or OH. Bridge positions count the residues as written; N and C are the ends. Side chains are listed from the residue outwards. Ends that are not written are not given here. * marks the point of attachment. C20 diacid = O=C(O)CCCCCCCCCCCCCCCCCCC(=O)*; γGlu = O=C(O)[C@H](CCC(=O)[*:2])N[*:1]

The target in assay [1] is T1, human amylin receptor (amylin 3(a) receptor: human calcitonin receptor coexpressed with RAMP-3) (human, UniProt P30988 25-474; O60896 24-148).
T1 sequence (looked up) 1: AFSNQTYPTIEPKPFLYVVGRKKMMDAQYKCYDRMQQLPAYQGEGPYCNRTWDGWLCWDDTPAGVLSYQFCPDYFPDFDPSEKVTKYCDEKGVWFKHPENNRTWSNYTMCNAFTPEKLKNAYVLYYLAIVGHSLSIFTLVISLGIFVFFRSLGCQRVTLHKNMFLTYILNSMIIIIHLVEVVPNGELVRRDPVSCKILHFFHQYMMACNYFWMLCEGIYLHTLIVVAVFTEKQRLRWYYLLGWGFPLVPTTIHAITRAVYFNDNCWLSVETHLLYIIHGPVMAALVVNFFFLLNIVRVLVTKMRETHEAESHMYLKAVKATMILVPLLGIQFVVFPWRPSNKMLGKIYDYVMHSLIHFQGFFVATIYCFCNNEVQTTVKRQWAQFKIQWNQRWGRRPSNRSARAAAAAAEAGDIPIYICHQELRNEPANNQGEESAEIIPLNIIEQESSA
T1 sequence (looked up) 2: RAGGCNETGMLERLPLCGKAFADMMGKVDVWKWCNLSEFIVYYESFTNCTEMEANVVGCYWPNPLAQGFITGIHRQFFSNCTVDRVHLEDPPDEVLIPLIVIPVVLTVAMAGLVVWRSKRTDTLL
As to the kind of experiment: cell-based or functional assay.

Assay [2] addresses T2, human calcitonin receptor (human, UniProt P30988 25-474).
T2 sequence (looked up): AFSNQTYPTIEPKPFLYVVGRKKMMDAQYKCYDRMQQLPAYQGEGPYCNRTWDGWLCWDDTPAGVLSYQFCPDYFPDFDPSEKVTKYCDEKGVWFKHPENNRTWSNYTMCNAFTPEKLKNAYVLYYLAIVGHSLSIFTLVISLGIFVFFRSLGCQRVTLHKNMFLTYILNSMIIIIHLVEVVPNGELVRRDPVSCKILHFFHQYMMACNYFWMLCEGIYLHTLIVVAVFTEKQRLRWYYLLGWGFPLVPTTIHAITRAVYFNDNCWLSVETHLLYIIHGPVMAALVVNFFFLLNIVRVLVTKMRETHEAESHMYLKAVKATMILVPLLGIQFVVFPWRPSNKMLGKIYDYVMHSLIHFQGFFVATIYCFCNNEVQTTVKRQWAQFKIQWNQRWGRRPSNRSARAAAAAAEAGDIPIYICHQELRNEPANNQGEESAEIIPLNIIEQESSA
Put plainly: cell-based or functional assay.

B1: N^ε1-[(4S)-4-carboxy-4-(19-carboxynonadecanoylamino)butanoyl]-[Arg17,Pro21,Pro27,Arg34]-h-amylin (peptide)
peptide: K([γGlu-C20 diacid])CNTATCATQRLANFLRHSSPNFGAIPSSTNVGRNTY-NH2
modifications: disulfide 2-7; N-terminus assumed
SMILES: CC[C@H](C)[C@H](NC(=O)[C@H](C)NC(=O)CNC(=O)[C@H](Cc1ccccc1)NC(=O)[C@H](CC(N)=O)NC(=O)[C@@H]1CCCN1C(=O)[C@H](CO)NC(=O)[C@H](CO)NC(=O)[C@H](Cc1c[nH]cn1)NC(=O)[C@H](CCCNC(=N)N)NC(=O)[C@H](CC(C)C)NC(=O)[C@H](Cc1ccccc1)NC(=O)[C@H](CC(N)=O)NC(=O)[C@H](C)NC(=O)[C@H](CC(C)C)NC(=O)[C@H](CCCNC(=N)N)NC(=O)[C@H](CCC(N)=O)NC(=O)[C@@H](NC(=O)[C@H](C)NC(=O)[C@@H]1CSSC[C@H](NC(=O)[C@@H](N)CCCCNC(=O)CC[C@H](NC(=O)CCCCCCCCCCCCCCCCCCC(=O)O)C(=O)O)C(=O)N[C@@H](CC(N)=O)C(=O)N[C@@H]([C@@H](C)O)C(=O)N[C@@H](C)C(=O)N[C@@H]([C@@H](C)O)C(=O)N1)[C@@H](C)O)C(=O)N1CCC[C@H]1C(=O)N[C@@H](CO)C(=O)N[C@@H](CO)C(=O)N[C@H](C(=O)N[C@@H](CC(N)=O)C(=O)N[C@H](C(=O)NCC(=O)N[C@@H](CCCNC(=N)N)C(=O)N[C@@H](CC(N)=O)C(=O)N[C@H](C(=O)N[C@@H](Cc1ccc(O)cc1)C(N)=O)[C@@H](C)O)C(C)C)[C@@H](C)O
notes: also called compound 79
Turning to B1, the “hAmylin-R funct. EC50 (pM)” value in assay [1] was 161 pM. The “hCTR funct. EC50 (pM)” value in assay [2] turned out to be 3940 pM.

Consider K([γGlu-C20 diacid])CNTATCATQRLAEFLRHSSPNFGAIPSSTNVGPHTY-NH2 (disulfide 2-7), for which, in assay [1], the “hAmylin-R funct. EC50 (pM)” value was determined as 101 pM. In assay [2], the “Ratio hCT/hAmylin funct.” value stood at 14.4 and the “hCTR funct. EC50 (pM)” value amounted to 1450 pM.

B2: N^ε1-[(4S)-4-carboxy-4-(19-carboxynonadecanoylamino)butanoyl]-[Glu14,Arg17,Pro21,Pro27,His35]-h-amylin (peptide)
peptide: K([γGlu-C20 diacid])CNTATCATQRLAEFLRHSSPNFGAIPSSTNVGSHTY-NH2
modifications: disulfide 2-7; N-terminus assumed
SMILES: CC[C@H](C)[C@H](NC(=O)[C@H](C)NC(=O)CNC(=O)[C@H](Cc1ccccc1)NC(=O)[C@H](CC(N)=O)NC(=O)[C@@H]1CCCN1C(=O)[C@H](CO)NC(=O)[C@H](CO)NC(=O)[C@H](Cc1c[nH]cn1)NC(=O)[C@H](CCCNC(=N)N)NC(=O)[C@H](CC(C)C)NC(=O)[C@H](Cc1ccccc1)NC(=O)[C@H](CCC(=O)O)NC(=O)[C@H](C)NC(=O)[C@H](CC(C)C)NC(=O)[C@H](CCCNC(=N)N)NC(=O)[C@H](CCC(N)=O)NC(=O)[C@@H](NC(=O)[C@H](C)NC(=O)[C@@H]1CSSC[C@H](NC(=O)[C@@H](N)CCCCNC(=O)CC[C@H](NC(=O)CCCCCCCCCCCCCCCCCCC(=O)O)C(=O)O)C(=O)N[C@@H](CC(N)=O)C(=O)N[C@@H]([C@@H](C)O)C(=O)N[C@@H](C)C(=O)N[C@@H]([C@@H](C)O)C(=O)N1)[C@@H](C)O)C(=O)N1CCC[C@H]1C(=O)N[C@@H](CO)C(=O)N[C@@H](CO)C(=O)N[C@H](C(=O)N[C@@H](CC(N)=O)C(=O)N[C@H](C(=O)NCC(=O)N[C@@H](CO)C(=O)N[C@@H](Cc1c[nH]cn1)C(=O)N[C@H](C(=O)N[C@@H](Cc1ccc(O)cc1)C(N)=O)[C@@H](C)O)C(C)C)[C@@H](C)O
B2: in assay [1], the “hAmylin-R funct. EC50 (pM)” value amounted to 425 pM. Moreover, in assay [2], the “Ratio hCT/hAmylin funct.” value came to 13.1 and the “hCTR funct. EC50 (pM)” value is 5580 pM.

B3: N^ε1-[(4S)-4-carboxy-4-(19-carboxynonadecanoylamino)butanoyl]-[Asp14,Arg17,Pro21,Pro27,Pro34,Arg35]-h-amylin (peptide)
peptide: K([γGlu-C20 diacid])CNTATCATQRLADFLRHSSPNFGAIPSSTNVGPRTY-NH2
modifications: disulfide 2-7; N-terminus assumed
SMILES: CC[C@H](C)[C@H](NC(=O)[C@H](C)NC(=O)CNC(=O)[C@H](Cc1ccccc1)NC(=O)[C@H](CC(N)=O)NC(=O)[C@@H]1CCCN1C(=O)[C@H](CO)NC(=O)[C@H](CO)NC(=O)[C@H](Cc1c[nH]cn1)NC(=O)[C@H](CCCNC(=N)N)NC(=O)[C@H](CC(C)C)NC(=O)[C@H](Cc1ccccc1)NC(=O)[C@H](CC(=O)O)NC(=O)[C@H](C)NC(=O)[C@H](CC(C)C)NC(=O)[C@H](CCCNC(=N)N)NC(=O)[C@H](CCC(N)=O)NC(=O)[C@@H](NC(=O)[C@H](C)NC(=O)[C@@H]1CSSC[C@H](NC(=O)[C@@H](N)CCCCNC(=O)CC[C@H](NC(=O)CCCCCCCCCCCCCCCCCCC(=O)O)C(=O)O)C(=O)N[C@@H](CC(N)=O)C(=O)N[C@@H]([C@@H](C)O)C(=O)N[C@@H](C)C(=O)N[C@@H]([C@@H](C)O)C(=O)N1)[C@@H](C)O)C(=O)N1CCC[C@H]1C(=O)N[C@@H](CO)C(=O)N[C@@H](CO)C(=O)N[C@H](C(=O)N[C@@H](CC(N)=O)C(=O)N[C@H](C(=O)NCC(=O)N1CCC[C@H]1C(=O)N[C@@H](CCCNC(=N)N)C(=O)N[C@H](C(=O)N[C@@H](Cc1ccc(O)cc1)C(N)=O)[C@@H](C)O)C(C)C)[C@@H](C)O
As to B3, the “hAmylin-R funct. EC50 (pM)” value in assay [1] was 146 pM. In addition, in assay [2], the “Ratio hCT/hAmylin funct.” value is 24.9 and the “hCTR funct. EC50 (pM)” value stood at 3640 pM.

B4: N^ε1-[(4S)-4-carboxy-4-(19-carboxynonadecanoylamino)butanoyl]-[Glu14,Arg17,Pro21,Pro27,Pro34,Arg35]-h-amylin (peptide)
peptide: K([γGlu-C20 diacid])CNTATCATQRLAEFLRHSSPNFGAIPSSTNVGPRTY-NH2
modifications: disulfide 2-7; N-terminus assumed
SMILES: CC[C@H](C)[C@H](NC(=O)[C@H](C)NC(=O)CNC(=O)[C@H](Cc1ccccc1)NC(=O)[C@H](CC(N)=O)NC(=O)[C@@H]1CCCN1C(=O)[C@H](CO)NC(=O)[C@H](CO)NC(=O)[C@H](Cc1c[nH]cn1)NC(=O)[C@H](CCCNC(=N)N)NC(=O)[C@H](CC(C)C)NC(=O)[C@H](Cc1ccccc1)NC(=O)[C@H](CCC(=O)O)NC(=O)[C@H](C)NC(=O)[C@H](CC(C)C)NC(=O)[C@H](CCCNC(=N)N)NC(=O)[C@H](CCC(N)=O)NC(=O)[C@@H](NC(=O)[C@H](C)NC(=O)[C@@H]1CSSC[C@H](NC(=O)[C@@H](N)CCCCNC(=O)CC[C@H](NC(=O)CCCCCCCCCCCCCCCCCCC(=O)O)C(=O)O)C(=O)N[C@@H](CC(N)=O)C(=O)N[C@@H]([C@@H](C)O)C(=O)N[C@@H](C)C(=O)N[C@@H]([C@@H](C)O)C(=O)N1)[C@@H](C)O)C(=O)N1CCC[C@H]1C(=O)N[C@@H](CO)C(=O)N[C@@H](CO)C(=O)N[C@H](C(=O)N[C@@H](CC(N)=O)C(=O)N[C@H](C(=O)NCC(=O)N1CCC[C@H]1C(=O)N[C@@H](CCCNC(=N)N)C(=O)N[C@H](C(=O)N[C@@H](Cc1ccc(O)cc1)C(N)=O)[C@@H](C)O)C(C)C)[C@@H](C)O
On to B4, for which the “hAmylin-R funct. EC50 (pM)” value in assay [1] is 376 pM. Further, in assay [2], the “Ratio hCT/hAmylin funct.” value is 17 and the “hCTR funct. EC50 (pM)” value worked out at 6380 pM.
